The text below walks through data of patent publication US20200199241A1 (Chugai, published 2020).

Broadly, the Kd is the free concentration of one partner at which half of the binding sites on the other are occupied at equilibrium, for simple one-to-one binding. A higher Kd goes with lower affinity.

Sequences and labels used below:
B1: IgG1-F163 (antibody)
heavy: QVQLQESGPGLVKPSETLSLTCAVSGHSISHDHAWSWVRQPPGEGLEWIGFISYSGITNYNPSLQGRVTISRDNSKNTLYLQMNSLRAEDTAVYYCARSLARTTAMDYWGEGTLVTVSSASTKGPSVFPLAPSSKSTSGGTAALGCLVKDYFPEPVTVSWNSGALTSGVHTFPAVLQSSGLYSLSSVVTVPSSSLGTQTYICNVNHKPSNTKVDKKVEPKSCDKTHTCPPCPAPELLGGPSVFLFPPKPKDTLWISRTPEVTCVVVDVSHEDPEVKFNWYVDGVEVHNAKTKPREEQYNSTYRVVSVLTVLHQDWLNGKEYKCKVSNKALPAPIEKTISKAKGQPREPQVYTLPPSRDELTKNQVSLTCLVKGFYPSDIAVEWESNGQPENNYKTTPPVLDSDGSFFLYSKLTVDKSRWQQGNVFSCSVFHEALHYHYTQKSLSLSP
light: not shown
notes: EU numbering; copies: 2 + 2
B2: IgG1-F165 (antibody)
heavy: QVQLQESGPGLVKPSETLSLTCAVSGHSISHDHAWSWVRQPPGEGLEWIGFISYSGITNYNPSLQGRVTISRDNSKNTLYLQMNSLRAEDTAVYYCARSLARTTAMDYWGEGTLVTVSSASTKGPSVFPLAPSSKSTSGGTAALGCLVKDYFPEPVTVSWNSGALTSGVHTFPAVLQSSGLYSLSSVVTVPSSSLGTQTYICNVNHKPSNTKVDKKVEPKSCDKTHTCPPCPAPELLGGPSVFLFPPKPKDTLWISRTPEVTCVVVAVSHEDPEVKFNWYVDGVEVHNAKTKPREEQYNSTYRVVSVLTVLHQDWLNGKEYKCKVSNKALPAPIEKTISKAKGQPREPQVYTLPPSRDELTKNQVSLTCLVKGFYPSDIAVEWESNGQPENNYKTTPPVLDSDGSFFLYSKLTVDKSRWQQGNVFSCSVMHEALHYHYTQKSLSLSP
light: not shown
notes: EU numbering; copies: 2 + 2
B3: IgG1-F166 (antibody)
heavy: QVQLQESGPGLVKPSETLSLTCAVSGHSISHDHAWSWVRQPPGEGLEWIGFISYSGITNYNPSLQGRVTISRDNSKNTLYLQMNSLRAEDTAVYYCARSLARTTAMDYWGEGTLVTVSSASTKGPSVFPLAPSSKSTSGGTAALGCLVKDYFPEPVTVSWNSGALTSGVHTFPAVLQSSGLYSLSSVVTVPSSSLGTQTYICNVNHKPSNTKVDKKVEPKSCDKTHTCPPCPAPELLGGPSVFLFPPKPKDTLWISRTPEVTCVVVDVSHEDPEVKFNWYVDGVEVHNAKTKPREEQYNSTYRVVSVLQVLHQDWLNGKEYKCKVSNKALPAPIEKTISKAKGQPREPQVYTLPPSRDELTKNQVSLTCLVKGFYPSDIAVEWESNGQPENNYKTTPPVLDSDGSFFLYSKLTVDKSRWQQGNVFSCSVMHEALHYHYTQKSLSLSP
light: not shown
notes: EU numbering; copies: 2 + 2
B4: IgG1-F164 (antibody)
heavy: QVQLQESGPGLVKPSETLSLTCAVSGHSISHDHAWSWVRQPPGEGLEWIGFISYSGITNYNPSLQGRVTISRDNSKNTLYLQMNSLRAEDTAVYYCARSLARTTAMDYWGEGTLVTVSSASTKGPSVFPLAPSSKSTSGGTAALGCLVKDYFPEPVTVSWNSGALTSGVHTFPAVLQSSGLYSLSSVVTVPSSSLGTQTYICNVNHKPSNTKVDKKVEPKSCDKTHTCPPCPAPELLGGASVFLFPPKPKDTLWISRTPEVTCVVVDVSHEDPEVKFNWYVDGVEVHNAKTKPREEQYNSTYRVVSVLTVLHQDWLNGKEYKCKVSNKALPAPIEKTISKAKGQPREPQVYTLPPSRDELTKNQVSLTCLVKGFYPSDIAVEWESNGQPENNYKTTPPVLDSDGSFFLYSKLTVDKSRWQQGNVFSCSVMHEALHYHYTQKSLSLSP
light: not shown
notes: EU numbering; copies: 2 + 2
B5: IgG1-F167 (antibody)
heavy: QVQLQESGPGLVKPSETLSLTCAVSGHSISHDHAWSWVRQPPGEGLEWIGFISYSGITNYNPSLQGRVTISRDNSKNTLYLQMNSLRAEDTAVYYCARSLARTTAMDYWGEGTLVTVSSASTKGPSVFPLAPSSKSTSGGTAALGCLVKDYFPEPVTVSWNSGALTSGVHTFPAVLQSSGLYSLSSVVTVPSSSLGTQTYICNVNHKPSNTKVDKKVEPKSCDKTHTCPPCPAPELLGGPSVFLFPPKPKDTLWISRTPEVTCVVVDVSHEDPEVKFNWYVDGVEVHNAKTKPREEQYNSTYRVASVLTVLHQDWLNGKEYKCKVSNKALPAPIEKTISKAKGQPREPQVYTLPPSRDELTKNQVSLTCLVKGFYPSDIAVEWESNGQPENNYKTTPPVLDSDGSFFLYSKLTVDKSRWQQGNVFSCSVMHEALHYHYTQKSLSLSP
light: not shown
notes: EU numbering; copies: 2 + 2

This test deals with T1, human FcRn (soluble human FcRn complexed with β2-microglobulin) (human, UniProt P61769 21-119, limits assumed).
T1 construct: also called hFcRn
T1 sequence (chain, as listed by the source limits assumed, chain 1 of 2): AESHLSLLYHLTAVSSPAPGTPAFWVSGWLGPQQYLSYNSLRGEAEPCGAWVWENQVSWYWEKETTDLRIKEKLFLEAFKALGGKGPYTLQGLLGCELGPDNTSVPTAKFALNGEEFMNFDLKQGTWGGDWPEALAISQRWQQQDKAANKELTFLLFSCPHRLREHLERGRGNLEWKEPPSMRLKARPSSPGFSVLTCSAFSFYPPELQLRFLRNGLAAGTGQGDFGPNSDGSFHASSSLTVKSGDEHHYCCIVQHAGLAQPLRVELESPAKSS
T1 sequence (P61769 21-119 limits assumed, chain 2 of 2): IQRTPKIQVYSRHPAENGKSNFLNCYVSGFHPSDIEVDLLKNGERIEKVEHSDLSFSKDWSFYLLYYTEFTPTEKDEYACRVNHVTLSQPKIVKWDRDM
The experiment in a line: SPR, pH 7.0.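 Also: antibodies captured on a Protein L sensor chip with human FcRn injected as analyte, KD calculated from fitted association and dissociation rate constants.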
B1: the affinity, expressed as Kd, was 420 nM.
Under B2 stands 290 nM; under B3, 150 nM.
Under B4 stands 370 nM; under B5, 290 nM.
